Data on 20 sequences can be found in the DeepSol protein solubility set.

The nature of this data set: soluble on expression in E. coli; label from the status in PepcDB or PDB records.
On to “MGSDKIHHHHHHMLKELHLQQVGPAAHFDVAFADRLNIFTGDNGLGKSFLLDIAWWVMTTNWAEQPAYPQRVKGENPQITAVVSNKKNIREYQSQFDFSEQQWRNLQMPPLLKEVVIYVRVDGSFSIFDPARQRDIAYNFNPNTLWNGLKSKDKVICNGLIQDWVTWQNQPNKYPFELFSNVIKKLAPHPSEWIEVGETTRVSIEDVRDIPTVNLPYGNVPVTQTSAGMKRILGLAYLLVWTWYEHKKASELRQQKPVNQIVLLIDEIESHLHPRWQRVILPAILSVVTELQPRMKIQALVTTHSPLILASLEPNFHEQEDKLFLFKLQDSEVSLDEVPWSKQGDIVGWLTSDIFGLKQARSKEAEIAIEAAEAWMRDDDMNTFPENLRISTQIHQELQRVLPGHDPFWPRWIVTTEKRNSGLSGV”, for which the “soluble on expression in E. coli” value is “not soluble”.

Consider “MGSDKIHHHHHHMTNLNYCRPLSLTTNRCLMNKELETLILSAVDLPTIPLVATKVIEMIEQEDVTIEKIAQTVSADPAVAARILKLSNSAYYGCQRQINTLSGAIMLLGFRTLKSLVVAASLKQICKRFGLTEKMLWEHAVGAAIAARIISANGKFINEETAFLAGLFHDIGKTIMNDLDPSKFQQVMMRCYNEGLPFEEVERSIYSFSHAEVGALVIRKWNFPEALSTAVMNHHDFPNPTLTDQYDLFLTATTCLADKFCKKLGIGERHPDEELDLAKTQEAHLLGYTPETILRDVDQFAQTFEENKSFFIND”, for which the “soluble on expression in E. coli” value is reported as “not soluble”.

Regarding “SRWQRDLTDSTVLRNMGVALGHTLLAYDSCLKGLGKLQADPARLSEDLQNAWEVLAEPIQTVMRRYGVANPYEQLKALTRGKTGIDRTTLQQFIEQLDIPAAERDRLLQLTPWGYI”, the “soluble on expression in E. coli” value was “not soluble”.

For the sequence “MKQFGLAAFDELKDGKYNDVNKTILEKQSVELRDQLMVFQERLVEFAKKHNSELQASPEFRSKFMHMCSSIGIDPLSLFDRDKHLFTVNDFYYEVCLKVIEICRQTKDMNGGVISFQELEKVHFRKLNVGLDDLEKSIDMLKSLECFEIFQIRGKKFLRSVPNELTSDQTKILEICSILGYSSISLLKANLGWEAVRSKSALDEMVANGLLWIDYQGGAEALYWDPSWITRQL”, the “soluble on expression in E. coli” value is listed as “soluble”.

Turning to “MFQVQKELASHEAVVVALFEEEKTSSFVQELDKAFEGQLQVLLEEKELSTKKKAISKVHSLGKTDVKRYYFVGLGKKESYTTETLRSALGKTFKTLQAAKVQDAAILLDSFVTEKLDAIDVAHIAAEVQGLGTYELQTYKSDKKDRVELEKFTAITAEDAQEIEAALTVGYVHGRATNSARTLVNMPPNVLTATKLAEYAVELAEKYDMDYKVLEKEEMEELGMGALLAVNQGSVEPPKMIALIYKGKEEWTDVIGFVGKGITYDTGGYSLKPREGMVGMKGDMGGAAAVLGAMEIIGELRPEQNVIAVIPSTDNVVSGTAFKPDDVITSMSGKTIEVLNTDAEGRLALADGITYAKKLGANYLIDVATLTGGVIVALGNHTTGAMTNNEELFEQVLEASMETDESIWQLPIFDRDKERVRNSKFADLNNSPGREGHAVMAGTFIGEFAEDTPWVHLDIAGTSESSGAHDLGPAGATGAMVRTLATLVERFGEE”, the “soluble on expression in E. coli” value is on record as “not soluble”.

Turning to “MVAATSQNTFDSPRSPLYNFTMDIRPLSDVAGVILVGGRSRRMGRDKALIPLGGKPLVERVIDAFRPLFERILLVGDRGERFASYGLPVFPDIHPGSALGGLYTGLVRAGTPHVFVSACDVPWPDPRVIARLCSLREGFDVVVPRTVGGSEPLFAVYGTGCLPAMERMLREGNYRIYDFYPEVRTRYVEQAELADLVTPARTFVNVNTPEEFETIRNREEGMAIKAVSFVAKSGTGKTTLLEKVIAELKGRGYRIGVIKHDAHRFDIDHPGKDSHRLAAAGADTMLIASPEKLALVKKYDESPPLDELLATYFGDVDIVLTEGFKKSSLPKIEVHRMERSATLLCRGEEHDPTLVAVASDAALALDVPVFDLNNPAQVADFVERTFLAAGAALEHHHHHH”, the “soluble on expression in E. coli” value is listed as “soluble”.

Take “MTKVDFWPTLKDAYEPLYPQQLEILRQQVVSEGGPTATIQSRFNYAWGLIKSTDVNDERLGVKILTDIYKEAESRRRECLYYLTIGCYKLGEYSMAKRYVDTLFEHERNNKQVGALKSMVEDKIQKETL”: the “soluble on expression in E. coli” value is “soluble”.

On to “MGSDKIHHHHHHMVILVNPSILESSFIPDRLVARDGEIERIMETVIKPTKNGITTNLILYGDSGTGKTVTMRYLAREIRDPQVVYVNAIAYRYVKNVLIDFLSKFGIIVPERSSYASLFTRIEGLLRNQGKNVILVIDEAANILKGDYDGLYYLFRSKDSFDVNISTIFVVMEDPAILFDAKIRKSYGIFSEIKFRRYTKGEIYQIVMNRAVQSLTGEGYDEDVLDYIAEVSAEYGSARVGIDILAKAAHIAEYRRSPKISFDDVRAARSMISPFVTESKLASMDYEDLMVLLSICRCLSASRFTDVDCISRNLSVISEQYGKKDINLYDRIKRLENNGIISSSIEGQGRGEGVKKVISIYDIPVSVLTEKIENLLSA”, for which the “soluble on expression in E. coli” value is given as “not soluble”.

Take “MGHHHHHHGGHMSLTSALPRPAPSPYARRKTALVIGAGFGGLALGIRLQSLGFDTTILERLDGPGGRAYQKRTPDGYVFDMGPTVLTVPHFIEELFALERDRAGLDAPDYPPEVLSGERVKEGVSGGPHTSRYVTLVPILPFYRIVFHDGTYFDYDGDPESTRRQIAELAPGDLAGYERFHADAEAIFRRGFLELGYTHFGDVPTMLRVVPDLLKLDAVRTLFSFTSKYFQSDKLRQVFSFETLLVGGNPLSVPAIYAMIHFVEKTWGIHYAMGGTGALVRGLVQKFEELGGAIRYGAGVDEVLVDGNLPGKRTARGVRLESGEELRADLVASNGDWANTYLKRVRPSARLVNSDLRVKAASESMSLLVVYFGFRGGDDLPLKHHNILLGPRYEALLSEIFGTKRLGEDFSQYLHVPTLTDPALAPAGHHAAYTLVPVPHNGSGIDWDVEGPKLAEAALADIERRGLIPGLRERLTHFEFITPDYFAGTLDSYLGNAFGPEPRLVQSAFFRPHNRSEDLHNFYLVGAGAQPGAGTPSVMMSAKMTARLIAEDFGIHADIREGGS”: the “soluble on expression in E. coli” value is reported as “soluble”.

In the case of “MEYCRLDGDTGRLRTEIKHPRLLLFNPGHEMVPEIIGKKPYVPPPVVRSMMRDLGLLPAWLTKSEQDFVFCPEKTLPIPDTHPLKPEARLLQIPDTALPLNDYTLDMWGQSPVWLAALQHRFLWLSTVSAPYYPHELYERSHRCEAARCLEAIGHSEMAAHWFTSINDFLKERYHCFPPDSALLAKLPSSSSGRGLIWLSSSPTDDEIDLLTKALRRAGSFSVEPVLDVRQDWAAEFYSNGKGELYFVGWSRFDTNRWGAYLGNRLATQTDLVAELTQTVGAQAHEEAIASVKDYLRER”, the “soluble on expression in E. coli” value is “not soluble”.

With “MRKLWPLALLLAACGAQDVGAGLDPLRLTATSLPPAYLGEPYSASLAAEGGVRPYSFTLDGKLPEGLSFQGGRLFGVPKEKGSFPLLLTVEDAAKNSRAQRLTLTVSDPPPPRLALVLPPAQVEGPFLLLARVEGREAVGFQMEVRLADLEPDLAGLKALSPAHLLDYDPATRLLRLDMAFAKPVKDREAFRFLLTPQKPLVPRLSPKVVFYDKEGKPLGQPLPRGKPFAELLRLAQAWGREGKALKEDLDGDGKVGEADLRLLAQGYFPKPETPSPEVPGGGEGQASGEEQAP”, the “soluble on expression in E. coli” value is “soluble”.

With “MKGYGEMAKNNPTRITAEPGKQEIIITREFDAPRELVFKAFTDPDLYTQWIGPRGFTTALKIFEPKNGGSWQYIQKDPEGNEYAFHGVNHDVTEPERIISTFEFEGLPEKGHVILDTARFEALPGDRTKLTSHSVFQTIEDRDGMLQSGMEEGINDSYERLDELLEKMKKLEHHHHHH”, the “soluble on expression in E. coli” value was “soluble”.

In the case of “MPEIIGKLLKSDGKVVSEIEKQVSQALIDLETNDDVQSQLKELYIVGVKEVELGNKSAIIIYVPVPQLKAFHKIHPALVRELEKKFGGRDILILAKRRILPKPQRGSKARPQKQKRPRSRTLTAVHDAWLDELVYPAEVVGRRIRVKLDGKKVYKVHLDKSHQTNVGHKIGVFASVYRKLTGKDVTFEFPDPIF”, the “soluble on expression in E. coli” value is listed as “not soluble”.

Consider “SGRTWREADINYTSGFRNSDRILYSSDWLIYKTTDHYQTFTKIRCAQVINTFDGVADYLQTYHKLPDNYITKSEAQALGWVASKGNLADVAPGKSIGGDIFSNREGKLPGK”, for which the “soluble on expression in E. coli” value is “soluble”.

On to “MGSDKIHHHHHHMIFSCPIDRSDVNEKLECEKGHKFGIIGGQIYDFLLKDVEVDKLLSRVIPIYESIWAPLGLLITSGKTYTSFLREIGEFIDGDLIIDVGTGTGKIFDFLNCKTCIGIDVSLRFLMYMKRKRTRVIAVRADANNLPLKSGIADGISSTLVLHMLSNPSFAIREMSRVLKSNGKCSIAVLANVNSIIGKTLSRWWKVNLRHYDYYINLLQENSLKVVERKELGPWEVINCIKIS”, for which the “soluble on expression in E. coli” value was “not soluble”.

For “MRAGIYRRSAGQGAEEKPEAVRAGHRGGGERHHDHAHHDGEGEFVVREELLHGRSVRFRRRSERIDEHEHRQRDRGHAQPGADRGAPGRQRATTGDNVCDGTPGSPHRRVRRRRPAPAA”, the “soluble on expression in E. coli” value was “not soluble”.

With “MGSDKIHHHHHHMNELNCLPQDAVLWGHDILPAATASLEAHGLRHPLTFTVEPLRDFHAQHVAPYLKRGAGAFTDLPPHAPDTGVRCALDACLRAEADSILALGGGSVLDAAKAVSHLHQQQTGRYLPIAAYPTTLSGSEYSHYFGVTETVGPQPFKRSYAVRETVPKVVVIDPKLLVNTPRELLLSSAIKGIDHAVEGMRRVGVDHPHAILAAAGVERFFAVLEKWPAGTDTAEALRSGQITTDDLLQLQLAAWQCYFFPASVIYGLSHRIGHILGGTYGLPHSVTSCITLAPVLQACAATYGNKLNIFCHGETTADAAPALAGRIAGVVKRLGLPYRLRDLDFDRARLAQVAALLRQNYAAEVADLGDGADAMLHTFLERLW”, the “soluble on expression in E. coli” value is reported as “not soluble”.

Regarding “GMSARDVFHEVVKTALKKDGWQITDDPLTISVGGVNLSIDLAAQKLIAAERQGQKIAVEVKSFLKQSSAISEFHTALGQFINYRGALRKVEPDRVLYLAVPLTTYKTFFQLDFPKEIIIENQVKMLVYDVEQEVIFQWIN”, the “soluble on expression in E. coli” value was “soluble”.

As for “MSITDVLSADDIAAALQECRDPDTFEPQKFFQTSGLSKMSANQVKDVFRFIDNDQSGYLDEEELKFFLQKFESGARELTESETKSLMAAADNDGDGKIGAEEFQEMVHS”, the “soluble on expression in E. coli” value is recorded as “soluble”.

As for “MRILLIHSDYIEYEVKDKAIKNPEPISEEEKKGRMDEVLVAFISVEKVDETNPEEVVSKAVEEIINVASQVKAENVFVYPFAHLSSELAKPSVAQEILRKVYEGLKEKGYNVGKAPFGYYKAFKISCKGHPLAELSRTIIPEGAKEEEVPEALKKEETELVSYWYILTPEGELIEVDKFDFTGYENLRKFANYEISKSRIAEKEPPHVKLMLEHELVDYEPGSDPGNLRYYPKGRLIKSLLEQYVTEKVIEYGAMEVETPVMYDFEHPALEKYLNRFPARQYIVLSGDKKYFLRFAACFGQFLISKDAVISYRHLPLRMYELTRYSFRREKRGELSGLRRLRAFTMPDMHTLAKDLEQAKDEFKKQFKLSMEVLKGVGLTPEDYEVAIRFTEDFWKENRDFIVELVKIIGKPVLIEMWKQRFFYFILKFEFNFVDNLDKAAALSTVQIDVENAERFGIKYYDENGEEKYPLILHCSPSGAIERVMYAILEKQAKLMQEGKKPMLPLWLSPIQVRVIPVSEEYLDYALYIAGKLEGARIRVDVDDEDERLNKKIRRAEKEWIPYIVVVGAKEKESGTITVRRREDGKQYETRLEELIKEIKEKVEGFPYKPRPLPLLLSKRPKFRG”, the “soluble on expression in E. coli” value is given as “soluble”.
